Each binder was assayed against T1, PUF4 RNA-binding domain (Saccharomyces cerevisiae, UniProt P25339 537-888) (assay: Mg; RNA-MaP; 20 mM Na-HEPES pH 7.4, 30 mM KOAc, 0.75 mM MgCl2, 0.1% Tween-20, 5% glycerol, 0.1 mg/mL BSA, 2 mM DTT; 25 C; 0.0125-409.6 nM protein). Settings: tags: N-His6-TEV cleaved; C-SNAP kept, Cy3B-labelled; label: tethered on chip by stalled RNA polymerase.
T1 sequence: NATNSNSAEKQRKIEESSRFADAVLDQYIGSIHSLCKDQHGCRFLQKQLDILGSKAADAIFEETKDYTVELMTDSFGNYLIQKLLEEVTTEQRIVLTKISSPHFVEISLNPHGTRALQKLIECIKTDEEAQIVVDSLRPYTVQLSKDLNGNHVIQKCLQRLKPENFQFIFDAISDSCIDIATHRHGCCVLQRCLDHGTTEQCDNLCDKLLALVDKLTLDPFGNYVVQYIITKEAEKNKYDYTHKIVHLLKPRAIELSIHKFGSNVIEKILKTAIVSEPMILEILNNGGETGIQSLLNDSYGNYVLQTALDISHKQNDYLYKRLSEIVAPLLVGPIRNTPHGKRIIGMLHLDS

Binder	Kd
ACAAACCGUAUAUAUAAGACAAAC (ssRNA) [Id_ii_S3_P3E.3_K3.2_C3.2_[T-1G]_H3.2_A3.1_F3.1_T3.2_[T9A]_[A10G]]	796 nM
ACAAACUGACACUAUAAGACAAAC (ssRNA) [Id_ii_S3_P3E.4_K3.3_C3.2_[C-2T]_[T-1G]_H3.3_A3.1_F3.1_T3.2_[T9A]_[A10G]]	> 2300 nM
ACAAACAAUAUAUAUAAGACAAAC (ssRNA) [Id_ii_S3_P3E.3_K3.2_C3.2_[C-2A]_[T-1A]_H3.2_A3.1_F3.1_T3.2_[T9A]_[A10G]]	1090 nM
ACAAACAUUAUAUAUAUAACAAAC (ssRNA) [Id_ii_S3_P3E.3_K3.2_C3.2_[C-2A]_H3.2_A3.1_F3.1_T3.2]	462 nM
ACAAACAUUAUAUAUAUUACAAAC (ssRNA) [Id_ii_S3_P3E.3_K3.2_C3.2_[C-2A]_H3.2_A3.1_F3.1_T3.2_[A10T]]	33.2 nM
UCUCUUUGUAUUGUAAUCUCUU (ssRNA) [Ib_S1_P5E.1_K5.1_C5.1_H5.1_A5.1_[A7G]_F5.1_[T9A]_T5.1]	10.6 nM
ACAAACACUAUAUAUAUGACAAAC (ssRNA) [Id_ii_S3_P3E.3_K3.2_C3.2_[C-2A]_[T-1C]_H3.2_A3.1_F3.1_T3.2_[A10G]]	572 nM
ACAAACAUUAUAUAUAGUACAAAC (ssRNA) [Id_ii_S3_P3E.3_K3.2_C3.2_[C-2A]_H3.2_A3.1_F3.1_T3.2_[T9G]_[A10T]]	67.5 nM
ACAAACGGACACUAUACUACAAAC (ssRNA) [Id_ii_S3_P3E.4_K3.3_C3.2_[C-2G]_[T-1G]_H3.3_A3.1_F3.1_T3.2_[T9C]_[A10T]]	2160 nM
ACAAACUGACACUAUAUUACAAAC (ssRNA) [Id_ii_S3_P3E.4_K3.3_C3.2_[C-2T]_[T-1G]_H3.3_A3.1_F3.1_T3.2_[A10T]]	1340 nM
ACAAACGAACACUAUACCACAAAC (ssRNA) [Id_ii_S3_P3E.4_K3.3_C3.2_[C-2G]_[T-1A]_H3.3_A3.1_F3.1_T3.2_[T9C]_[A10C]]	> 2300 nM
ACAAACGUACACUAUAUCACAAAC (ssRNA) [Id_ii_S3_P3E.4_K3.3_C3.2_[C-2G]_H3.3_A3.1_F3.1_T3.2_[A10C]]	51 nM
ACAAACACUAUAUAUAUCACAAAC (ssRNA) [Id_ii_S3_P3E.3_K3.2_C3.2_[C-2A]_[T-1C]_H3.2_A3.1_F3.1_T3.2_[A10C]]	541 nM
ACAAACCUUAUAUAUAUAACAAAC (ssRNA) [Id_ii_S3_P3E.3_K3.2_C3.2_H3.2_A3.1_F3.1_T3.2]	500 nM
UCUCUUUGUAAUAUUGUCUCUU (ssRNA) [Ic_S1_P5E.1_K5.1_C5.1_H5.1_A5.1_[T5A]_F5.1_[A10G]_T5.1]	14.9 nM
ACAAACUCACACUAUAGCACAAAC (ssRNA) [Id_ii_S3_P3E.4_K3.3_C3.2_[C-2T]_[T-1C]_H3.3_A3.1_F3.1_T3.2_[T9G]_[A10C]]	> 2300 nM
ACAAACCGUAUAUAUAGAACAAAC (ssRNA) [Id_ii_S3_P3E.3_K3.2_C3.2_[T-1G]_H3.2_A3.1_F3.1_T3.2_[T9G]]	366 nM
ACAAACCCUAUAUAUAGUACAAAC (ssRNA) [Id_ii_S3_P3E.3_K3.2_C3.2_[T-1C]_H3.2_A3.1_F3.1_T3.2_[T9G]_[A10T]]	392 nM
ACAAACGAACACUAUAAUACAAAC (ssRNA) [Id_ii_S3_P3E.4_K3.3_C3.2_[C-2G]_[T-1A]_H3.3_A3.1_F3.1_T3.2_[T9A]_[A10T]]	> 2300 nM
ACAAACGAACACUAUAUCACAAAC (ssRNA) [Id_ii_S3_P3E.4_K3.3_C3.2_[C-2G]_[T-1A]_H3.3_A3.1_F3.1_T3.2_[A10C]]	> 2300 nM
ACAAACUGACACUAUACUACAAAC (ssRNA) [Id_ii_S3_P3E.4_K3.3_C3.2_[C-2T]_[T-1G]_H3.3_A3.1_F3.1_T3.2_[T9C]_[A10T]]	> 2300 nM

Binder	Kd
ACAAACGCACACUAUAAUACAAAC (ssRNA) [Id_ii_S3_P3E.4_K3.3_C3.2_[C-2G]_[T-1C]_H3.3_A3.1_F3.1_T3.2_[T9A]_[A10T]]	> 2300 nM
ACAAACUGACACUAUAGAACAAAC (ssRNA) [Id_ii_S3_P3E.4_K3.3_C3.2_[C-2T]_[T-1G]_H3.3_A3.1_F3.1_T3.2_[T9G]]	1880 nM
ACAAACGGACACUAUAUUACAAAC (ssRNA) [Id_ii_S3_P3E.4_K3.3_C3.2_[C-2G]_[T-1G]_H3.3_A3.1_F3.1_T3.2_[A10T]]	1380 nM
ACAAACAUUAUAUAUAACACAAAC (ssRNA) [Id_ii_S3_P3E.3_K3.2_C3.2_[C-2A]_H3.2_A3.1_F3.1_T3.2_[T9A]_[A10C]]	708 nM
ACAAACCUUAUAUAUACCACAAAC (ssRNA) [Id_ii_S3_P3E.3_K3.2_C3.2_H3.2_A3.1_F3.1_T3.2_[T9C]_[A10C]]	845 nM
ACAAACCUUAUAUAUAUCACAAAC (ssRNA) [Id_ii_S3_P3E.3_K3.2_C3.2_H3.2_A3.1_F3.1_T3.2_[A10C]]	396 nM
ACAAACAUUAUAUAUAAUACAAAC (ssRNA) [Id_ii_S3_P3E.3_K3.2_C3.2_[C-2A]_H3.2_A3.1_F3.1_T3.2_[T9A]_[A10T]]	381 nM
ACAAACAAUAUAUAUAUUACAAAC (ssRNA) [Id_ii_S3_P3E.3_K3.2_C3.2_[C-2A]_[T-1A]_H3.2_A3.1_F3.1_T3.2_[A10T]]	94 nM
ACAAACGUACACUAUACCACAAAC (ssRNA) [Id_ii_S3_P3E.4_K3.3_C3.2_[C-2G]_H3.3_A3.1_F3.1_T3.2_[T9C]_[A10C]]	105 nM
ACAAACCAUAUAUAUAGCACAAAC (ssRNA) [Id_ii_S3_P3E.3_K3.2_C3.2_[T-1A]_H3.2_A3.1_F3.1_T3.2_[T9G]_[A10C]]	328 nM
ACAAACAAUAUAUAUAAUACAAAC (ssRNA) [Id_ii_S3_P3E.3_K3.2_C3.2_[C-2A]_[T-1A]_H3.2_A3.1_F3.1_T3.2_[T9A]_[A10T]]	98.1 nM
ACAAACAAUAUAUAUACGACAAAC (ssRNA) [Id_ii_S3_P3E.3_K3.2_C3.2_[C-2A]_[T-1A]_H3.2_A3.1_F3.1_T3.2_[T9C]_[A10G]]	1290 nM
UCUCUUUGUACUAUUCUCUCUU (ssRNA) [Ib_S1_P5E.1_K5.1_C5.1_H5.1_A5.1_[T5C]_F5.1_[A10C]_T5.1]	12.5 nM
UCUCUUUGUAAUAUUCUCUCUU (ssRNA) [Ib_S1_P5E.1_K5.1_C5.1_H5.1_A5.1_[T5A]_F5.1_[A10C]_T5.1]	21.6 nM
ACAAACGCACACUAUAGGACAAAC (ssRNA) [Id_ii_S3_P3E.4_K3.3_C3.2_[C-2G]_[T-1C]_H3.3_A3.1_F3.1_T3.2_[T9G]_[A10G]]	> 2300 nM
ACAAACCAUAUAUAUAACACAAAC (ssRNA) [Id_ii_S3_P3E.3_K3.2_C3.2_[T-1A]_H3.2_A3.1_F3.1_T3.2_[T9A]_[A10C]]	724 nM
ACAAACCCUAUAUAUAUGACAAAC (ssRNA) [Id_ii_S3_P3E.3_K3.2_C3.2_[T-1C]_H3.2_A3.1_F3.1_T3.2_[A10G]]	769 nM
ACAAACCUUAUAUAUAUGACAAAC (ssRNA) [Id_ii_S3_P3E.3_K3.2_C3.2_H3.2_A3.1_F3.1_T3.2_[A10G]]	632 nM
ACAAACAUUAUAUAUAAAACAAAC (ssRNA) [Id_ii_S3_P3E.3_K3.2_C3.2_[C-2A]_H3.2_A3.1_F3.1_T3.2_[T9A]]	868 nM
UCUCUUUGUAUUUUAAUCUCUU (ssRNA) [Ib_S1_P5E.1_K5.1_C5.1_H5.1_A5.1_[A7T]_F5.1_[T9A]_T5.1]	3.42 nM
ACAAACGUACACUAUAACACAAAC (ssRNA) [Id_ii_S3_P3E.4_K3.3_C3.2_[C-2G]_H3.3_A3.1_F3.1_T3.2_[T9A]_[A10C]]	100 nM

Binder	Kd
ACAAACCUUAUAUAUAGCACAAAC (ssRNA) [Id_ii_S3_P3E.3_K3.2_C3.2_H3.2_A3.1_F3.1_T3.2_[T9G]_[A10C]]	144 nM
ACAAACGAACACUAUAGCACAAAC (ssRNA) [Id_ii_S3_P3E.4_K3.3_C3.2_[C-2G]_[T-1A]_H3.3_A3.1_F3.1_T3.2_[T9G]_[A10C]]	> 2300 nM
ACAAACAUUAUAUAUAUCACAAAC (ssRNA) [Id_ii_S3_P3E.3_K3.2_C3.2_[C-2A]_H3.2_A3.1_F3.1_T3.2_[A10C]]	450 nM
UCUCUUUGUAGUAUUGUCUCUU (ssRNA) [Ic_S1_P5E.1_K5.1_C5.1_H5.1_A5.1_[T5G]_F5.1_[A10G]_T5.1]	81.1 nM
ACAAACGAACACUAUACAACAAAC (ssRNA) [Id_ii_S3_P3E.4_K3.3_C3.2_[C-2G]_[T-1A]_H3.3_A3.1_F3.1_T3.2_[T9C]]	> 2300 nM
ACAAACCCUAUAUAUAUUACAAAC (ssRNA) [Id_ii_S3_P3E.3_K3.2_C3.2_[T-1C]_H3.2_A3.1_F3.1_T3.2_[A10T]]	32.7 nM
ACAAACCGUAUAUAUAAAACAAAC (ssRNA) [Id_ii_S3_P3E.3_K3.2_C3.2_[T-1G]_H3.2_A3.1_F3.1_T3.2_[T9A]]	697 nM
ACAAACCAUAUAUAUAAGACAAAC (ssRNA) [Id_ii_S3_P3E.3_K3.2_C3.2_[T-1A]_H3.2_A3.1_F3.1_T3.2_[T9A]_[A10G]]	546 nM
ACAAACACUAUAUAUAUAACAAAC (ssRNA) [Id_ii_S3_P3E.3_K3.2_C3.2_[C-2A]_[T-1C]_H3.2_A3.1_F3.1_T3.2]	873 nM
ACAAACCAUAUAUAUAAAACAAAC (ssRNA) [Id_ii_S3_P3E.3_K3.2_C3.2_[T-1A]_H3.2_A3.1_F3.1_T3.2_[T9A]]	1420 nM
ACAAACCUUAUAUAUAUUACAAAC (ssRNA) [Id_ii_S3_P3E.3_K3.2_C3.2_H3.2_A3.1_F3.1_T3.2_[A10T]]	28.1 nM
ACAAACCGUAUAUAUACCACAAAC (ssRNA) [Id_ii_S3_P3E.3_K3.2_C3.2_[T-1G]_H3.2_A3.1_F3.1_T3.2_[T9C]_[A10C]]	1540 nM
ACAAACGCACACUAUAAGACAAAC (ssRNA) [Id_ii_S3_P3E.4_K3.3_C3.2_[C-2G]_[T-1C]_H3.3_A3.1_F3.1_T3.2_[T9A]_[A10G]]	> 2300 nM
ACAAACGAACACUAUAACACAAAC (ssRNA) [Id_ii_S3_P3E.4_K3.3_C3.2_[C-2G]_[T-1A]_H3.3_A3.1_F3.1_T3.2_[T9A]_[A10C]]	> 2300 nM
UCUCUUUGUAGUAUUAUCUCUU (ssRNA) [Ia_S1_P5E.1_K5.1_C5.1_H5.1_A5.1_[T5G]_F5.1_T5.1]	30 nM
ACAAACUGACACUAUACCACAAAC (ssRNA) [Id_ii_S3_P3E.4_K3.3_C3.2_[C-2T]_[T-1G]_H3.3_A3.1_F3.1_T3.2_[T9C]_[A10C]]	> 2300 nM
ACAAACCCUAUAUAUACUACAAAC (ssRNA) [Id_ii_S3_P3E.3_K3.2_C3.2_[T-1C]_H3.2_A3.1_F3.1_T3.2_[T9C]_[A10T]]	45.5 nM
ACAAACCCUAUAUAUACCACAAAC (ssRNA) [Id_ii_S3_P3E.3_K3.2_C3.2_[T-1C]_H3.2_A3.1_F3.1_T3.2_[T9C]_[A10C]]	614 nM
ACAAACCUUAUAUAUAACACAAAC (ssRNA) [Id_ii_S3_P3E.3_K3.2_C3.2_H3.2_A3.1_F3.1_T3.2_[T9A]_[A10C]]	513 nM
ACAAACGCACACUAUACAACAAAC (ssRNA) [Id_ii_S3_P3E.4_K3.3_C3.2_[C-2G]_[T-1C]_H3.3_A3.1_F3.1_T3.2_[T9C]]	> 2300 nM
ACAAACGGACACUAUAAAACAAAC (ssRNA) [Id_ii_S3_P3E.4_K3.3_C3.2_[C-2G]_[T-1G]_H3.3_A3.1_F3.1_T3.2_[T9A]]	> 2300 nM
